# Results taken from patent US20220042033A1, “COMPOSITION AND METHOD FOR CONFERRING AND/OR ENHANCING TOLERANCE AGAINST HERBICIDES BY USING VARIANTS OF PPO” (FarmHannong Co., Ltd., priority 2017, published 2022).
# Numbering of substitutions follows the chain as printed. Names and notes keep the numbering of the source.
# B1: A215L: ApPPO1 (SEQ ID NO: 1) variant (protein)
# chain: MPFTHLKPLNRLLGSPRARHPHVAPQAVSVTNTSTTRPGGRSSAPGIPGDAEYDVVIVGAGISGLTTAQALAKQYSDAVPRLLVTEARDCVGGNIITRRDGGYQWEEGPNSFQPSDAVLRAAVDAGVADRLVLGDPKAPRYVYWGGRLRATPSGPDVLTFDLLSLWGKLRAGLGAAGFKAPLPEREESVKEFVTRNLGEEVFQRLIEPFCSGVYLGDPAKLSMKAAFGKVYDLEKGGGSIVGGVLALMKARKQKPPEPRPADLPPKPKGQTVGSFDKGLVTLPSAIAEELGDRVVTGWKLESIDRSGDRFQLTYDTPQGRKKVSARSVALTVPAYTAASLLESRFPKLGKALSSIYYPPVASVALSYPETAILPERLGSDGHLAGFGQLHPRTQGVTTLGTIYASSLFPGRVPEGKVLLLSYFGGATNTRVATMPHGEIVSQVDKDLRKMLIRSDAESPHTVNVTVWPRAIPQFNVGHTDLIQEAKDDLASQGWQGLHLGGNYVAGVALGKCMEAGYKQAAELASHVKSLAT
# modifications: Synthetic (Protoporphyrinogen IX oxidase (ApPPO1) of Auxenochlorella protothecoides)
# B2: Y422T: ApPPO1 (SEQ ID NO: 1) variant (protein)
# chain: B1 chain with L215A, Y422T
# modifications: Synthetic (Protoporphyrinogen IX oxidase (ApPPO1) of Auxenochlorella protothecoides)
# B3: S362V + Y422I: ApPPO1 (SEQ ID NO: 1) variant (protein)
# chain: B1 chain with L215A, S362V, Y422I
# modifications: Synthetic (Protoporphyrinogen IX oxidase (ApPPO1) of Auxenochlorella protothecoides)
# B4: V360I + Y422I: ApPPO1 (SEQ ID NO: 1) variant (protein)
# chain: B1 chain with L215A, V360I, Y422I
# modifications: Synthetic (Protoporphyrinogen IX oxidase (ApPPO1) of Auxenochlorella protothecoides)
# B5: R140A + Y422M: ApPPO1 (SEQ ID NO: 1) variant (protein)
# chain: B1 chain with R140A, L215A, Y422M
# modifications: Synthetic (Protoporphyrinogen IX oxidase (ApPPO1) of Auxenochlorella protothecoides)
# B6: V213C + Y422M: ApPPO1 (SEQ ID NO: 1) variant (protein)
# chain: B1 chain with V213C, L215A, Y422M
# modifications: Synthetic (Protoporphyrinogen IX oxidase (ApPPO1) of Auxenochlorella protothecoides)
# B7: A215C + Y422M: ApPPO1 (SEQ ID NO: 1) variant (protein)
# chain: B1 chain with L215C, Y422M
# modifications: Synthetic (Protoporphyrinogen IX oxidase (ApPPO1) of Auxenochlorella protothecoides)
# B8: F209A + Y422M: ApPPO1 (SEQ ID NO: 1) variant (protein)
# chain: B1 chain with F209A, L215A, Y422M
# modifications: Synthetic (Protoporphyrinogen IX oxidase (ApPPO1) of Auxenochlorella protothecoides)
# B9: I402T + Y422M: ApPPO1 (SEQ ID NO: 1) variant (protein)
# chain: B1 chain with L215A, I402T, Y422M
# modifications: Synthetic (Protoporphyrinogen IX oxidase (ApPPO1) of Auxenochlorella protothecoides)
# B10: L389T + Y422M: ApPPO1 (SEQ ID NO: 1) variant (protein)
# chain: B1 chain with L215A, L389T, Y422M
# modifications: Synthetic (Protoporphyrinogen IX oxidase (ApPPO1) of Auxenochlorella protothecoides)
# B11: V360M + Y422M: ApPPO1 (SEQ ID NO: 1) variant (protein)
# chain: B1 chain with L215A, V360M, Y422M
# modifications: Synthetic (Protoporphyrinogen IX oxidase (ApPPO1) of Auxenochlorella protothecoides)
# B12: R140A: ApPPO1 (SEQ ID NO: 1) variant (protein)
# chain: B1 chain with R140A, L215A
# modifications: Synthetic (Protoporphyrinogen IX oxidase (ApPPO1) of Auxenochlorella protothecoides)
# B13: A215L + Y422M: ApPPO1 (SEQ ID NO: 1) variant (protein)
# chain: B1 chain with Y422M
# modifications: Synthetic (Protoporphyrinogen IX oxidase (ApPPO1) of Auxenochlorella protothecoides)
# B14: F386V + Y422M: ApPPO1 (SEQ ID NO: 1) variant (protein)
# chain: B1 chain with L215A, F386V, Y422M
# modifications: Synthetic (Protoporphyrinogen IX oxidase (ApPPO1) of Auxenochlorella protothecoides)
# Key:
# ApPPO1 [1] = experiment: Herbicide tolerance test of ApPPO1 wild type and variants in PPO-deficient E. coli BT3(ΔPPO), growth on herbicide-containing LB agar; assay type: cell-based, Auxenochlorella protothecoides; conditions: relative to ApPPO1 WT; for Herbicide tolerance, tiafenacil: up to 200 μM (FIGS. 7-12)
# Experimental: Then, the extent of tolerance was evaluated.
# ApPPO1 [2] = experiment: PPO enzyme activity of purified MBP-fused ApPPO1 wild type and variants; assay type: biochemical, Auxenochlorella protothecoides; conditions: PPO enzyme activity relative to ApPPO1 wild type; MBP-fused protein
# Experimental: Thus, PPO proteins of wild type and variants were expressed as fused to MBP and were used for experiments.
# The following process for purification of PPO protein was performed in a 4° C. cold room. […] The column was washed with 3 column volumes of buffer and the presence of protein in the washing solution was examined. When the protein was no longer detected, the washing procedure was terminated. Then, the MBP-PPO protein was eluted with approximately 2 column volumes of buffer containing 20 mM maltose. The protein concentration of each eluent was determined and the elution was stopped when the protein was no longer detected. Ten microliter of each fraction was investigated for protein quantification and SDS-PAGE analysis. The highly pure fractions of PPO protein variants were used for the enzyme assay.
# Since protoporphyrinogen IX, a substrate of PPO protein, was not commercially available, it was chemically synthesized in the laboratory. Overall process was performed in dark under nitrogen stream. […] of protoporphyrin IX was dissolved in 20 ml of 20% (v/v) EtOH, and stirred under dark condition for 30 minutes. The obtained protoporphyrin IX solution was put into a 15 ml screw tube in an amount of 800 μl, and flushed with nitrogen gas for 5 minutes. To this, 1.5 g of sodium amalgam was added and vigorously shaken for 2 minutes. The lid was opened to exhaust hydrogen gas in the tube. Thereafter, the lid was closed and incubated for 3 minutes. The protoporphyrinogen IX solution was filtered using syringe and cellulose membrane filter. To 600 μl of the obtained protoporphyrinogen IX solution, approximately 300 μl of 2M MOPS [3-(N-morpholino) propanesulfonic acid] was added to adjust pH to 8.0. To determine the enzyme activity of PPO protein, a reaction mixture was prepared with the following composition (based on 10 ml): 50 mM Tris-Cl (pH 8.0); 50 mM NaCl; 0.04% (v/v) Tween 20; 40 mM glucose (0.072 g); 5 units glucose oxidase (16.6 mg); and 10 units catalase (1 μl).
# Hundred and eighty microliters of a reaction mixture […] were placed in 96 well plates and 20 μl of purified PPO proteins were added. After 50 μl of the mineral oil was layered, the reaction was initiated by adding the substrate, protoporphyrinogen IX solution, to a final concentration of 50 μM. The reaction proceeded at room temperature for 30 min and the fluorescence of protoporphyrin IX was measured using Microplate reader (Sense, Hidex) (excitation: 405 nm; emission: 633 nm). To calculate the PPO enzyme activity, the protoporphyrinogen IX solution was kept open in the air overnight to oxidize the solution. To this, 2.7 N HCl was added, and the absorbance at 408 nm was measured. A standard curve was generated using standard protoporphyrin IX, and PPO activity was measured by calibration of protoporphyrin IX using the standard curve of protoporphyrin IX.
# Activities of variants were presented relatively compared to that of wild type.
# [3] = dark, up to 100 μM (FIGS. 7-12)
# [4] = dark, up to 400 μM (FIGS. 7-12)
molecule,measurement,setting,value
B1,"Herbicide tolerance, pentoxazone","ApPPO1 [1]; light, up to 10 μM (FIG. 5)",++ (10-99 fold higher tolerance)
same,"Herbicide tolerance, pyraflufenethyl","ApPPO1 [1]; light, up to 10 μM (FIG. 6)",+++ (100-999 fold higher tolerance)
same,"Herbicide tolerance, sulfentrazone","ApPPO1 [1]; light, up to 25 μM (FIG. 3)",+++ (100-999 fold higher tolerance)
same,"Herbicide tolerance, Fomesafen","ApPPO1 [1]; light, up to 25 μM (FIG. 4)",+++ (100-999 fold higher tolerance)
same,"Herbicide tolerance, acifluorfen","ApPPO1 [1]; light, up to 25 μM (FIG. 4)",+++ (100-999 fold higher tolerance)
same,"Herbicide tolerance, saflufenacil","ApPPO1 [1]; light, up to 100 μM (FIG. 2)","++++ (1,000-9,999 fold higher tolerance)"
same,"Herbicide tolerance, flumioxazin","ApPPO1 [1]; light, up to 200 μM (FIG. 3)","++++ (1,000-9,999 fold higher tolerance)"
same,Activity (%),ApPPO1 [2],76%
B2,Activity (%),ApPPO1 [2],84%
B3,Activity (%),ApPPO1 [2],21%
B4,Activity (%),ApPPO1 [2],16%
B5,"Herbicide tolerance, flumioxazin",ApPPO1 [1]; [3],"++++ (1,000-9,999 fold higher tolerance)"
same,"Herbicide tolerance, tiafenacil",ApPPO1 [1]; dark,"++++ (1,000-9,999 fold higher tolerance)"
same,"Herbicide tolerance, sulfentrazone",ApPPO1 [1]; [4],"++++ (1,000-9,999 fold higher tolerance)"
same,Activity (%),ApPPO1 [2],29%
B6,"Herbicide tolerance, flumioxazin",ApPPO1 [1]; [3],+++ (100-999 fold higher tolerance)
same,"Herbicide tolerance, tiafenacil",ApPPO1 [1]; dark,"+++++ (more than 10,000 fold higher tolerance)"
same,"Herbicide tolerance, sulfentrazone",ApPPO1 [1]; [4],++ (10-99 fold higher tolerance)
same,Activity (%),ApPPO1 [2],29%
B7,"Herbicide tolerance, flumioxazin",ApPPO1 [1]; [3],"+++++ (more than 10,000 fold higher tolerance)"
same,"Herbicide tolerance, tiafenacil",ApPPO1 [1]; dark,"+++++ (more than 10,000 fold higher tolerance)"
same,"Herbicide tolerance, sulfentrazone",ApPPO1 [1]; [4],"++++ (1,000-9,999 fold higher tolerance)"
same,Activity (%),ApPPO1 [2],58%
B8,Activity (%),ApPPO1 [2],51%
B9,Activity (%),ApPPO1 [2],21%
B10,Activity (%),ApPPO1 [2],15%
B11,Activity (%),ApPPO1 [2],8%
B12,Activity (%),ApPPO1 [2],88%
B13,"Herbicide tolerance, flumioxazin",ApPPO1 [1]; [3],"+++++ (more than 10,000 fold higher tolerance)"
same,"Herbicide tolerance, tiafenacil",ApPPO1 [1]; dark,"+++++ (more than 10,000 fold higher tolerance)"
same,"Herbicide tolerance, sulfentrazone",ApPPO1 [1]; [4],"++++ (1,000-9,999 fold higher tolerance)"
same,Activity (%),ApPPO1 [2],34%
B14,Activity (%),ApPPO1 [2],65%
